Measured values: US20200392227A1 (LYVGEN BIOPHARMA, published 2020)
Read-outs that look alike come from different tables or passages of the source.

Assays:
[1] = molecular target: T1, human FcγRIIC expressed on CHO cells (human, UniProt P31995 43-323); test: FACS, CHO cells expressing FcγRIIC
T1 construct: whole, on cells
T1 sequence (looked up): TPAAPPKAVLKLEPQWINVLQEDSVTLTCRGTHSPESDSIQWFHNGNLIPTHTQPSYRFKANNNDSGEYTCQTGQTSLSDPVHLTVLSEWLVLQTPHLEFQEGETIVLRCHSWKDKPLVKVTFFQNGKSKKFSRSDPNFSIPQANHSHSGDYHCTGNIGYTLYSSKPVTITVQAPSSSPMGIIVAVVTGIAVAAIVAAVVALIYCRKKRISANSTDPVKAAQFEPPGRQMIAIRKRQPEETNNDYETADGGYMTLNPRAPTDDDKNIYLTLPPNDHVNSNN
Method: FIGS. 1A-1W are charts showing binding activity of various IgG variants as indicated to different types of Fcγ receptors expressed on CHO-K1 cells at the various concentrations as indicated. The concentrations of each IgG variant, from left to right, are 0 μg/ml, 0.3 μg/ml, 1 μg/ml, 3 μg/ml, and 10 μg/ml in FIGS. 1A-1C, 1E-J, 1L-1M, 1P-1R, and 1T-1V. For FIGS. 1D, 1K, 10, 1S, and 1w the bars, from left to right, correspond to the following concentrations of IgG variant: 0.3 μg/ml, 1 μg/ml, 3 μg/ml, and 10 μg/ml.
For FACS analysis of the IgG mutants' binding to different FcγRs, FcγR overexpressing CHO cells were harvested using trypsin-EDTA and were suspended in cold staining buffer (3% BSA in PBS). Test IgG mutants, which were diluted in staining buffer, were added into the cells. The mixture was incubated 4° C. for 2 hours, and then washed twice with cold staining buffer and re-suspended in PE-labeled anti-human IgG followed by incubation at 4° C. for 2 hours. The mixture was washed twice with staining buffer and re-suspended in 2% PFA in PBS for FACS.

[2] = molecular target: T2, human FcRIIIB protein (MednaBio, E1037) (human, UniProt O75015 17-200); test: BLI
T2 construct: Bought; also called FcγRIIIB; FcgRIIIB
In short: (§1)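 Binding was measured by biolayer interferometry on an Octet Red96 System. Commercial human Fc receptor proteins were loaded at 20 μg/mL onto anti-penta-HIS biosensors, which were then dipped into an 8-point 1:3 dilution series of test IgG starting at 300 nM in PBS with 0.1% BSA and 0.02% Tween-20, at pH 7.2 for Fcγ receptors and pH 6 for FcRn. Kd, kon and koff were obtained by global fitting, with data fitted to a 1:1 binding model.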

[3] = molecular target: T3, human FcRIIA protein (MednaBio, E1033) (human, UniProt P12318 34-218, limits assumed); test: BLI
T3 construct: Bought; also called FcγRIIA
T3 sequence (looked up): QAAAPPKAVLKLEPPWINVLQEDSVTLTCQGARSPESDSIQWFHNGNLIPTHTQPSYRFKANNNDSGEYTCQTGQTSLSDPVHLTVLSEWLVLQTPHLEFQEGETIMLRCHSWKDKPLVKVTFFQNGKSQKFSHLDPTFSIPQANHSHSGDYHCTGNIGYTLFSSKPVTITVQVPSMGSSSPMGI
In short: as §1

[4] = molecular target: T4, human FcRIIIA-F158 protein (MednaBio, E1036) (human, UniProt P08637 17-208); test: BLI
T4 construct: Bought; also called FcγRIIIA(F)
In short: as §1

[5] = molecular target: T5, human FcRIIIA-V158 protein (MednaBio, E1035) (human, UniProt P08637 17-208); test: BLI
T5 construct: Bought; also called FcγRIIIA(V); FcgRIIIA(V)
In short: as §1

[6] = molecular target: T6, human FcRn protein (MednaBio, E1032) (human, UniProt P55899 24-297; P61769 21-119); test: BLI
T6 construct: Bought; assays at pH 6
In short: as §1

[7] = molecular target: T7, human FcRIIB/C protein (MednaBio, E1034) (human, UniProt P31994 43-217, limits assumed); test: BLI
T7 construct: Bought as FcRIIB/C; also called FcγRIIB; CD32B
T7 sequence (looked up): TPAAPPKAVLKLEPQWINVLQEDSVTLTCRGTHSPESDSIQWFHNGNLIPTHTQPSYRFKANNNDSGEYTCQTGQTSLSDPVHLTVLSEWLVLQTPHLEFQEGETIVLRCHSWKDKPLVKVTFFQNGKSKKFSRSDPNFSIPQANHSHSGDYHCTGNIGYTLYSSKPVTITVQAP
In short: as §1

[8] = molecular target: T8, human FcRI protein (MednaBio, E1031) (human, UniProt P12314 16-288, limits assumed); test: BLI
T8 construct: Bought; loaded on anti-penta-HIS biosensors; also called FcγRI
In short: as §1

[9] = molecular target: T2, human FcRIIIB protein (MednaBio, E1037); test: BLI; remark: listed apart in the source
In short: as §1

[10] = molecular target: T3, human FcRIIA protein (MednaBio, E1033); test: BLI; remark: listed apart in the source
In short: as §1

[11] = molecular target: T4, human FcRIIIA-F158 protein (MednaBio, …); test: BLI; remark: listed apart in the source
In short: as §1

[12] = molecular target: T5, human FcRIIIA-V158 protein (MednaBio, …); test: BLI; remark: listed apart in the source
In short: as §1

[13] = molecular target: T6, human FcRn protein (MednaBio, E1032); test: BLI; remark: listed apart in the source
In short: as §1

[14] = molecular target: T7, human FcRIIB/C protein (MednaBio, E1034); test: BLI; remark: listed apart in the source
In short: as §1

[15] = molecular target: T8, human FcRI protein (MednaBio, E1031); test: BLI; remark: listed apart in the source
In short: as §1

T5 sequence (P08637 17-208 F176V): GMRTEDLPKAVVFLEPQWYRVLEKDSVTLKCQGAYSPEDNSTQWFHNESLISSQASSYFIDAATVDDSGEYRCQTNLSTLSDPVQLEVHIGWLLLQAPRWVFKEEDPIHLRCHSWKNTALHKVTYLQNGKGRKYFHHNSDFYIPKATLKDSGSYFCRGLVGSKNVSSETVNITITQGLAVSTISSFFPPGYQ
T8 sequence (P12314 16-288 limits assumed): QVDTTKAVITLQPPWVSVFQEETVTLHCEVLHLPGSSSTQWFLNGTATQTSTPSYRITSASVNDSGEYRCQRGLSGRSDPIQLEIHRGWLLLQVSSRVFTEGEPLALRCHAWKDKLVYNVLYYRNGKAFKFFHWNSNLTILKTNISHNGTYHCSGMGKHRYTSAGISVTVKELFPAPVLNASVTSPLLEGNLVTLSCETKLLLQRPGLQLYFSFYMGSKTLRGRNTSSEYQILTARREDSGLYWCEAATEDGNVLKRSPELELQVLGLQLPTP
T6 sequence (P55899 24-297 limits assumed, form in doubt, chain 1 of 2): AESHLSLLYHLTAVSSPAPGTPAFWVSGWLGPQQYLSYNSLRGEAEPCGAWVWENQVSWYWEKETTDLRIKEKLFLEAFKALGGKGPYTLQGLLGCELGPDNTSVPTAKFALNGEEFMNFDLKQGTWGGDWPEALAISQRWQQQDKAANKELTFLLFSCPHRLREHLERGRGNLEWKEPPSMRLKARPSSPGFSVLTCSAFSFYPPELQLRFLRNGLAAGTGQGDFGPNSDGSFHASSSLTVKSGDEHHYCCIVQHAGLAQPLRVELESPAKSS
T6 sequence (P61769 21-119 limits assumed, form in doubt, chain 2 of 2): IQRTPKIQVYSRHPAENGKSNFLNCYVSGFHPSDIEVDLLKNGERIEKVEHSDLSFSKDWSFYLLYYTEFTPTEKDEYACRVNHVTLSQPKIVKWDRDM
T4 sequence (P08637 17-208 limits assumed): as the sequence (P08637 17-208 F176V) above, with V160F counted along it
T2 sequence (O75015 17-200 limits assumed): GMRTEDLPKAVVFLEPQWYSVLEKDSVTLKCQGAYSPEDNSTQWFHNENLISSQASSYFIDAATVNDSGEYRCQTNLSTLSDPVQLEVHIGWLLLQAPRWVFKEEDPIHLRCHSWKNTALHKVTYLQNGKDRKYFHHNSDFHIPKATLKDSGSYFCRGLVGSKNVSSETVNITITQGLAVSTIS

B1: anti-CD137 IgG4 with Fc variant G4m7 (antibody)
heavy: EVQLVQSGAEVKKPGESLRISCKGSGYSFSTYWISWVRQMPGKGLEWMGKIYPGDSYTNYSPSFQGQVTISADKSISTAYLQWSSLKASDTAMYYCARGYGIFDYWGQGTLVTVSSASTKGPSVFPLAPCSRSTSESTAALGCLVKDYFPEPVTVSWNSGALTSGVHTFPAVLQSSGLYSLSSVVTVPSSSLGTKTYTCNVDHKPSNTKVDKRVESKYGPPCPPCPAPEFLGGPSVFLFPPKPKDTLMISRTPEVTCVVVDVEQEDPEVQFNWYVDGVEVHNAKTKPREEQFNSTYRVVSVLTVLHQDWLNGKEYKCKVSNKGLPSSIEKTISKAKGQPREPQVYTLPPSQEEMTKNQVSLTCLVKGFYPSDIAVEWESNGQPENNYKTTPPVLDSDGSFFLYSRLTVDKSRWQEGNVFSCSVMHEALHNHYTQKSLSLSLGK
light: SYELTQPPSVSVSPGQTASITCSGDNIGDQYAHWYQQKPGQSPVLVIYQDKNRPSGIPERFSGSNSGNTATLTISGTQAMDEADYYCATYTGFGSLAVFGGGTKLTVLGQPKAAPSVTLFPPSSEELQANKATLVCLISDFYPGAVTVAWKADSSPVKAGVETTTPSKQSNNKYAASSYLSLTPEQWKSHRSYSCQVTHEGSTVEKTVAPTECS
notes: copies: 2 + 2
With B1 the binding result [1] was “binds”, the binding result [2] was “no binding (tested: 300 nM)” and the Kd [3] was 210 nM. The koff [3] was 0.034 s⁻¹, the kon [3] was 160000 M⁻¹ s⁻¹ and the binding result [4] was “no binding (tested: 300 nM)”. For the same binder, the binding result [5] was “no binding (tested: 300 nM)”, the Kd [6] was 23 nM and the koff [6] was 0.012 s⁻¹. For the same binder, the kon [6] was 520000 M⁻¹ s⁻¹, the Kd [7] was 45 nM and the koff [7] was 0.02 s⁻¹. For the same binder, the kon [7] was 440000 M⁻¹ s⁻¹, the Kd [8] was 2.1 nM and the koff [8] was 0.0011 s⁻¹. It also gave a kon [8] of 540000 M⁻¹ s⁻¹.

B2: anti-CD137 IgG1 with Fc variant G1m15 (antibody)
heavy: EVQLVQSGAEVKKPGESLRISCKGSGYSFSTYWISWVRQMPGKGLEWMGKIYPGDSYTNYSPSFQGQVTISADKSISTAYLQWSSLKASDTAMYYCARGYGIFDYWGQGTLVTVSSASTKGPSVFPLAPSSKSTSGGTAALGCLVKDYFPEPVTVSWNSGALTSGVHTFPAVLQSSGLYSLSSVVTVPSSSLGTQTYICNVNHKPSNTKVDKKVEPKSCDKTHTCPPCPAPELLSVFLFPPKPKDTLMISRTPEVTCVVVDVSHEDPEEKFNWYVDGVEVHNAKTKPREEQYNSTYRVVSVLTVLHQDWLNGKEYKCKVSNKALPAPIEKTISKAKGQPREPQVYTLPPSREEMTKNQVSLTCLVKGFYPSDIAVEWESNGQPENNYKTTPPVLDSDGSFFLYSKLTVDKSRWQQGNVFSCSVMHEALHNHYTQKSLSLSPGK
light: SYELTQPPSVSVSPGQTASITCSGDNIGDQYAHWYQQKPGQSPVLVIYQDKNRPSGIPERFSGSNSGNTATLTISGTQAMDEADYYCATYTGFGSLAVFGGGTKLTVLGQPKAAPSVTLFPPSSEELQANKATLVCLISDFYPGAVTVAWKADSSPVKAGVETTTPSKQSNNKYAASSYLSLTPEQWKSHRSYSCQVTHEGSTVEKTVAPTECS
notes: copies: 2 + 2
For B2, the binding result [9] was “no binding (tested: 300 nM)”, the Kd [10] was 480 nM and the koff [10] was 0.11 s⁻¹. The kon [10] was 230000 M⁻¹ s⁻¹, the binding result [11] was “no binding (tested: 300 nM)” and the binding result [12] was “no binding (tested: 300 nM)”. The Kd [13] was 21 nM, the koff [13] was 0.013 s⁻¹ and the kon [13] was 600000 M⁻¹ s⁻¹. It also gave a Kd [14] of 700 nM, a koff [14] of 0.38 s⁻¹ and a kon [14] of 540000 M⁻¹ s⁻¹. The Kd [15] was 120 nM, the koff [15] was 0.06 s⁻¹ and the kon [15] was 500000 M⁻¹ s⁻¹.

B3: anti-CD137 IgG1 with Fc variant G1m17 (antibody)
heavy: EVQLVQSGAEVKKPGESLRISCKGSGYSFSTYWISWVRQMPGKGLEWMGKIYPGDSYTNYSPSFQGQVTISADKSISTAYLQWSSLKASDTAMYYCARGYGIFDYWGQGTLVTVSSASTKGPSVFPLAPSSKSTSGGTAALGCLVKDYFPEPVTVSWNSGALTSGVHTFPAVLQSSGLYSLSSVVTVPSSSLGTQTYICNVNHKPSNTKVDKKVEPKSCDKTHTCPPCPAPELLSVFLFPPKPKDTLMISRTPEVTCVVVDVEHEDPEVKFNWYVDGVEVHNAKTKPREEQYNSTYRVVSVLTVLHQDWLNGKEYKCKVSNKALPAPIEKTISKAKGQPREPQVYTLPPSREEMTKNQVSLTCLVKGFYPSDIAVEWESNGQPENNYKTTPPVLDSDGSFFLYSKLTVDKSRWQQGNVFSCSVMHEALHNHYTQKSLSLSPGK
light: SYELTQPPSVSVSPGQTASITCSGDNIGDQYAHWYQQKPGQSPVLVIYQDKNRPSGIPERFSGSNSGNTATLTISGTQAMDEADYYCATYTGFGSLAVFGGGTKLTVLGQPKAAPSVTLFPPSSEELQANKATLVCLISDFYPGAVTVAWKADSSPVKAGVETTTPSKQSNNKYAASSYLSLTPEQWKSHRSYSCQVTHEGSTVEKTVAPTECS
notes: copies: 2 + 2
For B3, the binding result [9] was “no binding (tested: 300 nM)”, the Kd [10] was 250 nM and the koff [10] was 0.059 s⁻¹. The kon [10] was 240000 M⁻¹ s⁻¹, the binding result [11] was “no binding (tested: 300 nM)” and the binding result [12] was “no binding (tested: 300 nM)”. It also gave a Kd [13] of 10.7 nM, a koff [13] of 0.00764 s⁻¹ and a kon [13] of 715000 M⁻¹ s⁻¹. It also gave a Kd [14] of 180 nM, a koff [14] of 0.043 s⁻¹ and a kon [14] of 240000 M⁻¹ s⁻¹. It also gave a Kd [15] of 88 nM, a koff [15] of 0.041 s⁻¹ and a kon [15] of 460000 M⁻¹ s⁻¹.

B4: anti-CD137 IgG4 with Fc variant G4mPE (antibody)
heavy: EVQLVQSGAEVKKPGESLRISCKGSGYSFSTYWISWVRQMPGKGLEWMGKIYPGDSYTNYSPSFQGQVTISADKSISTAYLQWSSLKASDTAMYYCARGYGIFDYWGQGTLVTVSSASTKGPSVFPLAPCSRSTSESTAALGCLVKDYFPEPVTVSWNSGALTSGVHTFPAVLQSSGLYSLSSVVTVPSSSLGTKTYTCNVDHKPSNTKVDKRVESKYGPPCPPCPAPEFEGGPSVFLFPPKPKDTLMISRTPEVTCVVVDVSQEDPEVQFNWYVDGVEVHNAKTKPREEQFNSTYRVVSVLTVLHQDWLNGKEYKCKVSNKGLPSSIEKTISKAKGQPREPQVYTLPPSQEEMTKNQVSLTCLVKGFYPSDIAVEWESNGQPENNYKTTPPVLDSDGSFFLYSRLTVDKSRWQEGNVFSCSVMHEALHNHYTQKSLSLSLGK
light: SYELTQPPSVSVSPGQTASITCSGDNIGDQYAHWYQQKPGQSPVLVIYQDKNRPSGIPERFSGSNSGNTATLTISGTQAMDEADYYCATYTGFGSLAVFGGGTKLTVLGQPKAAPSVTLFPPSSEELQANKATLVCLISDFYPGAVTVAWKADSSPVKAGVETTTPSKQSNNKYAASSYLSLTPEQWKSHRSYSCQVTHEGSTVEKTVAPTECS
notes: also called G4PE; copies: 2 + 2
Binder B4 has a Kd [2] of 132 nM, a koff [2] of 0.0579 s⁻¹ and a kon [2] of 437000 M⁻¹ s⁻¹. For the same binder, the Kd [3] was 54.5 nM, the koff [3] was 0.0256 s⁻¹ and the kon [3] was 469000 M⁻¹ s⁻¹. The Kd [4] was 145 nM, the koff [4] was 0.0678 s⁻¹ and the kon [4] was 468000 M⁻¹ s⁻¹. The Kd [5] was 202 nM, the koff [5] was 0.0596 s⁻¹ and the kon [5] was 296000 M⁻¹ s⁻¹. It also gave a Kd [6] of 21.9 nM, a koff [6] of 0.0152 s⁻¹ and a kon [6] of 698000 M⁻¹ s⁻¹. The Kd [7] was 30.7 nM, the koff [7] was 0.0123 s⁻¹ and the kon [7] was 401000 M⁻¹ s⁻¹. The Kd [8] was 605 nM, the koff [8] was 0.0617 s⁻¹ and the kon [8] was 102000 M⁻¹ s⁻¹.
